This is an account of results in patent publication US20130071921A1 (Pfizer, published 2013).

For assay [1], the target named is T1, Recombinant human Dkk-1 (R&D Systems cat no. 1096-DK/CF), 10xHis tag at the C terminal (human, UniProt O94907 32-266).
T1 construct: the actual N-terminus of the purified protein is marked in bold italic after residue 30, but the mark is an image lost in the text; also called rhuDkk-1; hDkk-1
T1 sequence: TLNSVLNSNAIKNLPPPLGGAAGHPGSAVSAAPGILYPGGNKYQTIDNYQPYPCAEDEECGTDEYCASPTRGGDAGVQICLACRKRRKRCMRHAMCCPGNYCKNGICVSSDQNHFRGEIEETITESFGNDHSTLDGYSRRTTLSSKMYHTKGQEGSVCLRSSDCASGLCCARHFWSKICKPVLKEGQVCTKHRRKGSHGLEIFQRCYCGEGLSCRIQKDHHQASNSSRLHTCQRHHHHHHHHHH
Nature of the assay: SPR (Table 4, headed 37C, BIAcore or ProteOn); 37 C per caption of Table 4.

For assay [2], the target named is T1, Recombinant human Dkk-1 (R&D Systems …). Nature of the assay: SPR BIAcore 25C, huMabJC18 IgG amine-coupled, human Dkk1 injected. The procedure: The affinity of huMabJC18 to human, mouse or rat Dkk1 was determined by using the BIAcore3000™ surface plasmon resonance (SPR) system (BIAcore Inc., Piscataway, N.J.), equipped with a CM5 sensor chip (BIAcore AB, Uppsala, Sweden). For the huMabJC18-human Dkk1 interaction analysis, reaction surfaces were generated by amine coupling of huMabJC18 to three flow cells (Fc2, Fc3 and Fc4). CM5 chips were activated with N-ethyl-N′-(3-dimethylaminopropyl)-carbodiinide hydrochloride (EDC) and N-hydroxysuccinimide (NHS) according to the supplier's instructions. The huMabJC18 IgG was diluted into 10 mM sodium acetate pH 4.0 and injected over the activated chip at a concentration of 30 μg/ml.
Using variable flow time across the individual chip channels, a range of antibody density was achieved: 200-800 response units (RU). The IgG and reference surfaces were then saturated with goat Fab2 anti-human Fc (Cappel 55053) to prevent nonspecific binding by Dkk-1 to the chip surface. The chip was then blocked with ethanolamine. Assays were performed at 25° C., with a BIAcore running buffer composed of HBS-EP (0.01M HEPES, pH 7.4, 0.15 NaCl, 3 mM EDTA, 0.005% Surfactant P20)+2 mg/ml BSA+2 mg/ml CM Dextran. A five membered, three fold dilution series starting at 30.9 nM purified human Dkk1 (R&D Systems) protein was injected for 1.5 min at 100 μL/min, and dissociation was monitored for […]. Kinetic association rates (kₒₙ) and dissociation rates (koff) were obtained simultaneously by fitting the data to a 1:1 Langmuir binding model (Karlsson, R. Roos, H. Fagerstam, L. Petersson, B. (1994). Methods Enzymology 6. 99-110) using the BIAevaluation program. Equilibrium dissociation constant (KD) values were calculated as koff/kₒₙ.

For assay [3] the target is unchanged. As to the kind of experiment: SPR (Table 4, headed 37C, BIAcore or ProteOn).
Assay [4] deals with T2, recombinant mouse Dkk-4 (R&D systems Cat No. 3105-DK/CF) (mouse, UniProt Q8VEJ3 19-221, limits assumed).
T2 construct: Bought; also called mDkk-4
T2 sequence (looked up): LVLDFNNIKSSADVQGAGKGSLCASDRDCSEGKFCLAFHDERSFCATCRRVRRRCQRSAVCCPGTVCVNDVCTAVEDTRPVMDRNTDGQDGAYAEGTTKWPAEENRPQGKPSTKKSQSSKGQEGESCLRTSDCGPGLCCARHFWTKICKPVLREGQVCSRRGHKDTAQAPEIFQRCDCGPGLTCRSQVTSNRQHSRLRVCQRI
As to the kind of experiment: SPR BIAcore, huMabJC18 captured by goat Fab2 anti-human Fc, mDkk-4 titrated from 32.3 nM.

Assay [5] has as its target T3, recombinant mouse Dkk-1 (R&D systems Cat No. 1765-DK/CF) (mouse, UniProt O54908 32-272).
T3 construct: Bought
T3 sequence (looked up): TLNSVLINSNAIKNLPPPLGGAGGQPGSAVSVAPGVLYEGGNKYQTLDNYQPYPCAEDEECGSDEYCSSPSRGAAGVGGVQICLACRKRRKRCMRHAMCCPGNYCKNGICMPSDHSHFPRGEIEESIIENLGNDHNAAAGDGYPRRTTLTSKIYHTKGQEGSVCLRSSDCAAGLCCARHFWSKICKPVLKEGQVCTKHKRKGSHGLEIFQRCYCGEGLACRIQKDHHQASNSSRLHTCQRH
As to the kind of experiment: method not given.

Assay [6] concerns the target T1, Recombinant human Dkk-1 (R&D Systems …). Nature of the assay: method not given.
The next assay concerns the target Cynomolgous monkey Dkk-1 (cynomolgous monkey). Nature of the assay: TMDD PK/PD model fit to monkey serum data in vivo; derived as Koff/Kon.
The target in assay [7] is T4, recombinant rat Dkk-1 (R&D systems Cat No. 4010-DK/CF) (rat).
T4 construct: Bought
As to the kind of experiment: TMDD PK/PD model fit to rat serum data in vivo; derived as Koff/Kon.

For assay [8], the target named is T1, Recombinant human Dkk-1 (R&D Systems …). Nature of the assay: cell-based or functional assay.

A value given as a limit tells only on which side of the number the result lay.

B1: huMabJC18, fully humanized anti-Dkk-1 monoclonal antibody (antibody, human IgG2, kappa, V domains shown)
VH: EVQLVESGGGLVQPGGSLRLSCAASGFTFSSYAISWVRQAPGKGLEWVASVSGTGLGFQTYYPDSVKGRFTISRDNAKNSLYLQMNSLRAEDTAVYYCATSLENYAFDYWGQGTTVTVSS
VL: EIVLTQSPATLSLSPGERATLSCRASESVDDFGISFINWYQQKPGQAPRLLIYAGSKQGSGIPARFSGSGSGTDFTLTISSLEPEDFAVYYCQQLKEVPPTFGGGTKVEIKR
notes: IgG2(delta a: A329S, P330S), kappa; also called huMabJC18 IgG
Take B1: the on-rate constant (kon) in [1] is more than 1.36e+06 M⁻¹ s⁻¹; in assay [2] it was more than 1.3e+06 M⁻¹ s⁻¹; in [4], more than 1.3e+06 M⁻¹ s⁻¹. In addition, the dissociation constant (Kd) in assay [2] was less than 0.002 nM; in [3] it was less than 0.002 nM; in [4], less than 0.03 nM; in the assay with Cynomolgous monkey Dkk-1 it was 0.0513 nM; in [7], 0.0348 nM. The T1/2 was more than 96.3 h in assay [2] and more than 4.94 h in assay [4]. In addition, the koff in assay [2] is less than 2e-06 s⁻¹; in [3] it was less than 2e-06 s⁻¹; in [4], less than 3.9e-05 s⁻¹. Further, the “fold increase in affinity against the parent mouse antibody JC18” value in [5] and in [6] was more than 100 fold throughout. Moreover, the “IC50 in a Cell-based Functional Assay (U2OS TOPFlash luciferase; reversal of Dkk-1 inhibition of Wnt3a signaling)” value in assay [8] worked out at 1.3 nM.
